# Measurements published in publication PMC6328864, “Regulation of Myosin-5b by Rab11a and the Rab11 family interacting protein 2” (Bioscience Reports, 2018).
# T1: Flag-Myo5b-GTD (Rattus norvegicus (Rat), UniProt P70569)
# T1 chain: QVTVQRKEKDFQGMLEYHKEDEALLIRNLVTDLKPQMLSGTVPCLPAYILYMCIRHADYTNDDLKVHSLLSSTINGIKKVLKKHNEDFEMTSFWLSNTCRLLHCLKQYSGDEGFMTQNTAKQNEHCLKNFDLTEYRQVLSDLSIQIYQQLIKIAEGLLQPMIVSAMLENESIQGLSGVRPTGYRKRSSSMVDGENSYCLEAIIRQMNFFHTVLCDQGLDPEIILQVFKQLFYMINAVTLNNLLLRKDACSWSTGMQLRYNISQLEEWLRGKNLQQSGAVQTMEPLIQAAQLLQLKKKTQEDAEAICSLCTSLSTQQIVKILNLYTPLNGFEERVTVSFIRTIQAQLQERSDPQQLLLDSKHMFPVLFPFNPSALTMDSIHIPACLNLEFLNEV
# B1: GST–Rab11a (natural protein, human, UniProt P62491 1-216, looked up)
# chain: MGTRDDEYDYLFKVVLIGDSGVGKSNLLSRFTRNEFNLESKSTIGVEFATRSIQVDGKTIKAQIWDTAGQERYRAITSAYYRGAVGALLVYDIAKHLTYENVERWLKELRDHADSNIVIMLVGNKSDLRHLRAVPTDEARAFAEKNGLSFIETSALDSTNVEAAFQTILTEIYRIVSQKQMSDRRENDMSPSNNVVPIHVPPTTENKPKVQCCQNI
# notes: Rab11a, human (cDNA by RT-PCR from human brain cDNA); GTPγS also in the pull-down buffers; source: E. coli, purified (GSH-Sepharose); not shown: GST, N-terminal, kept
# B2: Flag-FIP2-RBD (domain or fragment, human, UniProt Q7L804 452-512, looked up)
# chain: TYEEVLQELVKHKELLRRKDTHIRELEDYIDNLLVRVMEETPSILRVPYEPSRKAGKFSNS
# notes: not shown: Flag, N-terminal, kept
# How the values were obtained:
# [1] = molecular target: T2, Flag-FIP2 (full-length Rab11 family interacting protein 2) (human, UniProt Q7L804 1-512); test: pull-down; GSH-Sepharose; 0.5 μM GST–Rab11a (bait), 0–0.5 μM Flag-Myo5b-Tail, 0–1.0 μM Flag-FIP2 or Flag-FIP2-RBD; Buffer-B with 100 mM NaCl and 3 μM GTPγS; 4°C, 1 h; eluted with 20 mM GSH; Coomassie staining; settings: both partners purified
# T2 construct: not shown: Flag, N-terminal, kept
# Flag-Myo5b-GTD = molecular target: T1, Flag-Myo5b-GTD; test: GST pull-down / anti-Flag pull-down; Rab11a loaded with GTPγS/Mg2+; binding competed away by FIP2-RBD
# GST–Rab11a = molecular target: B1; test: pull-down; GSH-Sepharose; 0.5 μM GST–Rab11a (bait), 0–1.0 μM Flag-Myo5b-GTD, 0–1.0 μM Flag-FIP2-RBD; Buffer-B with 100 mM NaCl and 3 μM GTPγS; 4°C, 1 h; eluted with 20 mM GSH; Western blot (anti-Flag, anti-GST); settings: both partners purified
Binder,binding result [1],binding result (Flag-Myo5b-GTD),binding result (GST–Rab11a)
B1,binds,binds,–
B2,–,–,binds
